The text below walks through data of publication doi:10.1101/2021.11.18.469126.

In the experiment the target is TASK3 (UniProt Q9NPC2). The experiment in a line: fluorescence polarisation.
Chain of UniProt Q9NPC2 (Q9NPC2 whole entry): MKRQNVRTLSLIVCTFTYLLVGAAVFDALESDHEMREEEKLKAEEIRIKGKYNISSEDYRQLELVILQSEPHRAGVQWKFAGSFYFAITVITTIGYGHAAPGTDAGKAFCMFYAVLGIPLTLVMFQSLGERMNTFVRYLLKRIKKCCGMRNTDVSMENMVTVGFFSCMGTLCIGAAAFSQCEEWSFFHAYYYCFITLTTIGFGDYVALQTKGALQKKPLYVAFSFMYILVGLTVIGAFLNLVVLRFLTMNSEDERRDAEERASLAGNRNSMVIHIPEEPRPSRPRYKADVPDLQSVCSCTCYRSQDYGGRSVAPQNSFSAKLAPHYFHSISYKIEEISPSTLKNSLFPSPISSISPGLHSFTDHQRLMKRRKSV

Regarding “14-3-3 protein (from UniProt P31947 1-248) (natural protein)”, the Kd (in general, the free concentration of one partner at which half of the binding sites on the other are occupied at equilibrium, for simple one-to-one binding) was determined as 4.05 µM and the cooperativity factor α (stabilisation of the pair by fusicoccin-A) was 1340.
